Measurements from publication PMC11953334, “Substrates bind to residues lining the ring of asymmetrically engaged bacterial proteasome activator Bpa” (Nature Communications, 2025).

Tests used:
20S CP α-subunit = molecular target: T1, 20S CP α-subunit (M. tuberculosis H37Rv, UniProt P9WHU1 1-248); assay: cryo-EM structure; details: both partners purified
T1 construct: also called proteasomal α-subunits; α-ring

negative stain EM = molecular target: the molecule itself; assay: negative stain EM
cross-linking + SEC = molecular target: the molecule itself; assay: cross-linking + SEC

T1 sequence (P9WHU1 whole entry): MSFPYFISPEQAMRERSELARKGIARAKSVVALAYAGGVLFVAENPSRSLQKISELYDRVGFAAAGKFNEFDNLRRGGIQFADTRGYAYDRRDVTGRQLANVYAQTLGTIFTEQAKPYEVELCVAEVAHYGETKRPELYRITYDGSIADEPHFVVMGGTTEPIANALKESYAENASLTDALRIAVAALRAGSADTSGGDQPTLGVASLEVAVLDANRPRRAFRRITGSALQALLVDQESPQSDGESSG

Binder	binding result (20S CP α-subunit)	stoichiometry N (negative stain EM)	stoichiometry N (cross-linking + SEC)
bacterial proteasome activator Bpa, full-length, wild-type (natural protein, also called wild-type Bpa ring; Bpa12; copies: 12) MVIGLSTGSDDDDVEVIGGVDPRLIAVQENDSDESSLTDLVEQPAKVMRIGTMIKQLLEEVRAAPLDEASRNRLRDIHATSIRELEDGLAPELREELDRLTLPFNEDAVPSDAELRIAQAQLVGWLEGLFHGIQTALFAQQMAARAQLQQMRQGALPPGVGKSGQHGHGTGQYL	binds	–	–
truncated Bpa variant lacking the flexible N- and C-terminal segments (Bpa36-139) (domain or fragment, Dodecameric ring; also called substrate-captured Bpa; copies: 12) SLTDLVEQPAKVMRIGTMIKQLLEEVRAAPLDEASRNRLRDIHATSIRELEDGLAPELREELDRLTLPFNEDAVPSDAELRIAQAQLVGWLEGLFHGIQTALFA	–	24	12
